Experimental findings from patent publication US20210221891A1 (NANJING LEGEND BIOTECH, published 2021) are described below.

B1: AS06628 sdAb (VHH)
VHH: QVQLVESGGGLVQAGGSLRLSCAASGRTFITYAIGWFRQAPGKEREFVTAINWSGSMTSYADSVKGRFTISRDNNKNMVYLQMNSLKPEDTAVYYCAAHRGAIAPMTQSVYDYWGQGTQVTVSS
B2: AS06703 sdAb (VHH)
VHH: B1 VHH with Q1E, Q13R, M78T, V93L, R100L, T107S
B3: AS06791 sdAb (VHH)
VHH: B1 VHH with N75A, M78T, M83I, S85G, P88S
B4: AS06730 sdAb (VHH)
VHH: B1 VHH with T49S, N75A, M78T, S85G, M106I, T107A, D112T, Y113N
B5: AS06778 sdAb (VHH)
VHH: QVQLVESGGGLVQAGGSLKLSCAASGRTFITYAMGWFRQAPGKERELVAAISWSGSSTYSADSVKGRFTISRDNAKNTVYLQMNSLKPEDTAVYYCAAEVSARTGEHLPKLMGDYWGQGTQVTVSS
B6: AS11948 sdAb (VHH)
VHH: EVQLVESGGGLVQAGDSLRLSCVASGRTFVTYGMGWFRQAPGKEREFVAAINWSGSMTSYGDSVKGRFAISRDNAKNTVYLQMNSLKPEDTAVYYCAAALGAVVYTTREPYTYWGRGTQVTVSS
B7: AS11947 sdAb (VHH)
VHH: DVQLVESGGGLVQAGDSLRLTCSASGRTFISYAVGWFRQAPGTEREFVAGIRWNGISTDYTDSVKGRFTISRDNAKNTVYLQMNSLKPEDTAIYYCAAHRTIATIPNKYEYDHWGQGTQVTVSS
B8: AS06750 sdAb (VHH)
VHH: AVQLVESGGGLVQAGDSLRLSCTASGRTFLTYAVGWFRQAPGTEREFVAGIRWSGGYTDYADSVKGRFTISRDNAKNTVYLQMNSLKPEDTAVYYCAAHRTIATIPEKYEYEYWGQGTQVTVSS
B9: AS06775 sdAb (VHH)
VHH: B8 VHH with A1Q, T23A, Y32L, G56S, Y57G, R100T, Q116R
B10: AS06617 sdAb (VHH)
VHH: DVQLVESGGGLVQAGDSLRLSCAASGRTFISYAVGWFRQAPGSEREFVAGIRWNGIHTDYADSVKGRFTISRDNAKNTVTLEMTSLKPEDTAVYYCAAHRTIATIPEKYEYEYWGQGTQVTVSS
B11: AS06682 sdAb (VHH)
VHH: B8 VHH with T31S, G56E, Y57H, D62A, R100T, E107K
B12: AS06618 sdAb (VHH)
VHH: B8 VHH with A1E, G10R, Q13R, T23A, T31S, D62E, S63A
B13: AS12003 sdAb (VHH)
VHH: B8 VHH with A1E, T23A, T31S, Y57S, I105V, E107N, E112D, Y113T
B14: AS06686 sdAb (VHH)
VHH: AVQLVESGGGLVQAGDSLRLACAASGRTFLTYALGWFRQAPGKEREFVAGVSWSGSSTKYADSVKGRFTISRDNAKNTVYMQMNSLKPEDTAVYYCAAQISAIVPISAHEYQYWGQGTQVTVSS

Substitutions are numbered along the chain they refer to.

human PD-L1 expressed on CHO-K1 cells, sequence (Q9NZQ7 19-290): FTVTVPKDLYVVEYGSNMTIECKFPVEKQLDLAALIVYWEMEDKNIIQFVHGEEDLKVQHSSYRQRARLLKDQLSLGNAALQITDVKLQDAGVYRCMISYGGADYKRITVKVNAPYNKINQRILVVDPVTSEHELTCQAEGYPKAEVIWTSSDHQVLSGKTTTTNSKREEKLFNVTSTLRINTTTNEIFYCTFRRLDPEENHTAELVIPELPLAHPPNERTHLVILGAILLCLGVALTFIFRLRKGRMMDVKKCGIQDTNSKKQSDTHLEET

The assay has as its target human PD-L1 expressed on CHO-K1 cells (human, UniProt Q9NZQ7 19-290). Put plainly: cell-based or functional assay.
With B1, the “EC50 of PD-L1- based blockade assay for sdAbs” value (from here on “EC50”) worked out at 0.0242 µM.

Turning to B2, the “EC50” value amounted to 0.015 µM.

As for B3, the “EC50” value was 0.0365 µM.

As for B4, the “EC50” value stood at 0.0172 µM.

Consider B5, for which the “EC50” value worked out at 0.0201 µM.

B6: the “EC50” value is 0.0252 µM.

As to B7, the “EC50” value came out at 0.0772 µM.

As to B8, the “EC50” value was determined as 0.0336 µM.

As to B9, the “EC50” value is 0.0755 µM.

Take B10: the “EC50” value was 0.0638 µM.

Take B11: the “EC50” value was found to be 0.042 µM.

For the molecule B12, the “EC50” value came out at 0.0445 µM.

As to B13, the “EC50” value was 0.0962 µM.

Regarding B14, the “EC50” value stood at 0.352 µM.
